Experimental data: the RNAGym collection of RNA variant scans (doi:10.7554/elife.80360)

B1: Twister Ribozyme (parent)
chain: AACACUGCCAAUGCCGGUCCCAAGCCCGGAUAAAAGUGGAGGGGGCGG

Variants of: B1
Assay: self-cleavage, relative activity (ratio to wild type); higher = more cleavage; co-transcriptional

| Variant | self-cleavage |
| --- | --- |
| U12G C21G | 0.0698 |
| A23G A32G | 0.402 |
| G29C G44A | 0.791 |
| A4G U12C | 0.811 |
| U6A A32G | 0.987 |
| U6A A32U | 0.862 |
| G17U C19A | 0.0777 |
| C19U A22G | 0.0788 |
| A2U A35U | 0.574 |
| G29C C46G | 0.586 |
| U31C A34C | 0.196 |
| U12A A33G | 0.969 |
| A22G G43A | 0.0968 |
| A30C U37A | 0.231 |
| C3U A30G | 0.422 |
| G39A G48C | 0.532 |
| C8A G28U | 0.22 |
| U12C A33C | 0.876 |
| C15U C25G | 0.414 |
| C14U A30C | 1.08 |
| A11C G41U | 0.42 |
| C19U C27U | 0.802 |
| A11G G47C | 0.528 |
| C3G C20U | 0.295 |

| Variant | self-cleavage |
| --- | --- |
| A4U U18A | 0.0531 |
| G29C A35G | 0.544 |
| C9G A34U | 0.47 |
| U6C A33C | 0.12 |
| A32U A33G | 0.891 |
| A4C A10G | 0.334 |
| C9U G41U | 0.187 |
| C20G A30G | 0.233 |
| A11C G16U | 0.0992 |
| U6G U12G | 0.343 |
| A11C G45U | 0.748 |
| C20G C26G | 0.093 |
| G13U A40C | 0.129 |
| U31G G42U | 0.447 |
| G17A A34U | 0.137 |
| C27U C46G | 0.914 |
| C21A G29C | 0.0813 |
| C3G G41A | 0.209 |
| A22C C46U | 0.832 |
| G17C C25U | 0.0911 |
| C8U G42C | 0.217 |
| G7C A23U | 0.0664 |
| C3U C8A | 0.17 |
| C19G C46G | 0.165 |

| Variant | self-cleavage |
| --- | --- |
| U6A C27A | 0.119 |
| C14A G43U | 0.456 |
| C21U A22G | 0.0633 |
| C14G G41U | 0.111 |
| G13C A22U | 0.16 |
| A11C U37A | 0.886 |
| C8G U12C | 0.435 |
| C3G A10U | 0.648 |
| A11G G29C | 0.679 |
| C15A A32C | 0.529 |
| C21A G43A | 0.0637 |
| C15A G17C | 0.0439 |
| G7C G28A | 0.0408 |
| G7U G28A | 0.0571 |
| A10G G13U | 0.79 |
| G39U G44C | 0.155 |
| A32G G47U | 0.893 |
| G45C G47A | 0.305 |
| C27G G39C | 0.105 |
| A30U G38C | 0.88 |
| C25U A30C | 0.53 |
| G7C G16C | 0.13 |
| C26U G29A | 0.212 |
| G29C G48C | 0.688 |

| Variant | self-cleavage |
| --- | --- |
| A11G G17U | 0.188 |
| A10U G24U | 0.119 |
| A2U C9G | 0.119 |
| A4U C8A | 0.0382 |
| U6A C8U | 0.175 |
| C5G A22G | 0.137 |
| C25G G28A | 0.346 |
| C3A G36C | 0.0352 |
| C9U C27A | 0.064 |
| C8G G47C | 0.186 |
| U12G G47A | 0.772 |
| C15A U31A | 0.706 |
| G13C C15U | 0.0748 |
| A10G C25G | 0.409 |
| C19U C46U | 0.907 |
| C21G C46A | 0.115 |
| C26A U37A | 0.118 |
| C26A G28A | 0.168 |
| C20G A22U | 0.122 |
| G47A G48A | 1.31 |
| G7U A35U | 0.109 |
| G13C A33C | 0.236 |
| C5G G45C | 0.222 |
| G16A A23C | 0.137 |

| Variant | self-cleavage |
| --- | --- |
| A4U G13A | 0.0571 |
| G39A G47U | 0.238 |
| G39A G47C | 0.137 |
| A2C A32U | 0.101 |
| A2C A32G | 0.0723 |
| A2G A40C | 0.138 |
| G24U G47A | 0.094 |
| C19U G41A | 0.134 |
| A2G G28C | 0.241 |
| G16U G43C | 0.183 |
| A32C G36U | 0.184 |
| A22C A33C | 0.955 |
| U12C C20G | 0.103 |
| A30G G45A | 0.901 |
| C5G A33U | 0.662 |
| A10U A22C | 0.93 |
| G7C A32C | 0.0784 |
| U18A G42A | 0.104 |
| A22U G47A | 0.582 |
| U6C G48A | 0.514 |
| C9A A22C | 0.642 |
| A10U C15G | 0.062 |
| C21A G41U | 0.678 |
| G47A | 0.952 |

| Variant | self-cleavage |
| --- | --- |
| C27U G42A | 0.184 |
| C15G C46G | 0.111 |
| C5G G43A | 0.153 |
| C5A C14G | 0.0565 |
| A11U C20G | 0.17 |
| A32U G38C | 1.12 |
| A40U G45C | 0.129 |
| A40U G45A | 0.192 |
| G28U A40C | 0.136 |
| G41A G47U | 0.236 |
| U37A G45U | 0.617 |
| C27G A32C | 0.137 |
| A34U G44C | 0.766 |
| C8U A32U | 0.515 |
| A22U G36U | 0.074 |
| A35C G43U | 0.456 |
| A1C C14G | 0.124 |
| C25U C26G | 0.131 |
| G7C A10C | 0.0829 |
| A10G U18G | 0.0537 |
| C3G C26A | 0.121 |
| C3G C26U | 0.137 |
| C5G G29A | 0.458 |
| A4G G48C | 1.18 |

| Variant | self-cleavage |
| --- | --- |
| G24A C46G | 0.0598 |
| C8G G17A | 0.0824 |
| C19A G48C | 0.149 |
| A2C C26A | 0.0536 |
| U18C C21U | 0.0707 |
| U18A G43U | 0.125 |
| G7C C26A | 0.0601 |
| A1G G42A | 0.215 |
| A33C G43U | 0.297 |
| C15U G48A | 0.765 |
| C20U C46U | 0.969 |
| G7A U31C | 0.451 |
| G24A G36U | 0.0791 |
| C26G A30C | 0.0641 |
| C3G A11C | 0.295 |
| G13C C27U | 0.0915 |
| C3U C25A | 0.0634 |
| C9A G16C | 0.087 |
| G42C G48U | 0.561 |
| A1U A23C | 0.09 |
| G17A C27U | 0.403 |
| G42C G47C | 0.467 |
| U12C | 0.961 |
